In patent US11891445 (ABL BIO, dated 2024):

Legend:
[1] = biological target: T1, human B7-H3 expressed on a cell surface (human cancer cell lines) (human, UniProt Q5ZPR3 29-534); test: flow cytometry, Panc-1 cells, antibody 10 ug/ml
T1 construct: whole, on cells; also called cell surface expression B7-H3 antigen
T1 sequence (looked up): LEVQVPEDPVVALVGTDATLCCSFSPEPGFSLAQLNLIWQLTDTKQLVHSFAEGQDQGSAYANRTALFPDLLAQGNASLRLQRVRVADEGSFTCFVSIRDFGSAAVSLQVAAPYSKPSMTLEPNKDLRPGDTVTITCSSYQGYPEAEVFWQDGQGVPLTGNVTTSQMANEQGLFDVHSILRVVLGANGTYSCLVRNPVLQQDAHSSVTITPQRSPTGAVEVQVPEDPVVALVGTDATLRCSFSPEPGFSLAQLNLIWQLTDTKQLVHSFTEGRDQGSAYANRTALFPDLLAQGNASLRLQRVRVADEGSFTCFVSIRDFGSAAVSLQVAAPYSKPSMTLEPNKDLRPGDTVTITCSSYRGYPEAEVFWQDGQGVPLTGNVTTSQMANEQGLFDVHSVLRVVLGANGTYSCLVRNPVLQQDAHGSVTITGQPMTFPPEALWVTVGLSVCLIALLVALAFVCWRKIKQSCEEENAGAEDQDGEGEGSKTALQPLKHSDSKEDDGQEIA
Text: (§1) Using various kinds of cancer cells A2780 (human ovarian cancer, ECACC, 93112519), SKOV-3 (human ovarian adenocarcinoma, ATCC® HTB-77™) OVCAR-3 (human ovarian adenocarcinoma, ATCC® HTB-161™), HCT116 (colon cancer cell, ThermoFIshcer Sci), HT29 (olorectal adenocarcinoma, ATCC® HTB-38™), DLD-1 (colorectal adenocarcinoma cell lines, ATCC® CCL-221™), Calu-6 (Non-small-cell lung carcinoma, ATCC® HTB-56™), HCC1954 (TNM stage IIA, grade 3, ductal carcinoma, ATCC® CRL-2338™), HCC1187 (TNM stage IIA, ATCC® CLC-2322™), renal cancer cell line 786-0 (renal cell adenocarcinoma, ATCC® CRL-1932™), A498 (kidney carcinoma, ATCC® HTB-44™), Panc-1 (pancreas epithelioid carcinoma, TCC CRL-1469™), NCI-N87 (gastric carcinoma, TCC CRL-5822™), HeLa (cervix adenocarcinoma, ATCC® CCL-2™), JeKo-1 (Lymphoma, ATCC® CRL-3006™) and FACSCalibur (BD Biosciences) device, the degree of binding of anti-B7-H3 antibody to B7-H3 was measured as follows.
(§2) After dissociating each cell line and washing it with PBS buffer, the number of cells was counted and adjusted to 2×10^5 cells/200 µl PBS, and then was treated with 10 µg/ml of B7-H3 monoclonal antibodies prepared in Example 2. Reaction was allowed at 4° C. for 1 hr. […] After the reaction, cells were washed in PBS and analyzed using the FACSCalibur device. […]

[2] = biological target: T1, human B7-H3 expressed on a cell surface …; test: flow cytometry, JeKo-1 cells, antibody 10 ug/ml
Text: as §1, §2

[3] = biological target: T1, human B7-H3 expressed on a cell surface …; test: flow cytometry, HCC1187 cells, antibody 10 ug/ml
Text: as §1, §2

[4] = biological target: T1, human B7-H3 expressed on a cell surface …; test: flow cytometry, SKOV-3 cells, antibody 10 ug/ml
Text: as §1, §2

[5] = biological target: T1, human B7-H3 expressed on a cell surface …; test: flow cytometry, HCC1954 cells, antibody 10 ug/ml
Text: as §1, §2

[6] = biological target: T1, human B7-H3 expressed on a cell surface …; test: flow cytometry, OVCAR-3 cells, antibody 10 ug/ml
Text: as §1, §2

[7] = biological target: T1, human B7-H3 expressed on a cell surface …; test: flow cytometry, HCT116 cells, antibody 10 ug/ml
Text: as §1, §2

[8] = biological target: T1, human B7-H3 expressed on a cell surface …; test: flow cytometry, MDA-MB-231 cells, antibody 10 ug/ml
[9] = biological target: T1, human B7-H3 expressed on a cell surface …; test: flow cytometry, HT29 cells, antibody 10 ug/ml
Text: as §1, §2

[10] = biological target: T1, human B7-H3 expressed on a cell surface …; test: flow cytometry, NCI-N87 cells, antibody 10 ug/ml
Text: as §1, §2

[11] = biological target: T1, human B7-H3 expressed on a cell surface …; test: flow cytometry, Hela cells, antibody 10 ug/ml
Text: as §1, §2

[12] = biological target: T1, human B7-H3 expressed on a cell surface …; test: flow cytometry, Calu-6 cells, antibody 10 ug/ml
Text: as §1, §2

[13] = biological target: T1, human B7-H3 expressed on a cell surface …; test: flow cytometry, DLD-1 cells, antibody 10 ug/ml
Text: as §1, §2

[14] = biological target: T1, human B7-H3 expressed on a cell surface …; test: flow cytometry, MDA-MB-468 cells, antibody 10 ug/ml
[15] = biological target: T1, human B7-H3 expressed on a cell surface …; test: flow cytometry, 786-0 cells, antibody 10 ug/ml
Text: as §1, §2

[16] = biological target: T1, human B7-H3 expressed on a cell surface …; test: flow cytometry, MCF-7 cells, antibody 10 ug/ml
[17] = biological target: T1, human B7-H3 expressed on a cell surface …; test: flow cytometry, A2780 cells, antibody 10 ug/ml
Text: as §1, §2

[18] = biological target: T1, human B7-H3 expressed on a cell surface …; test: flow cytometry, A-498 cells, antibody 10 ug/ml
Text: as §1, §2

- MFI Ratio [1]: 9 ratio
- MFI Ratio [2]: 2.9 ratio
- MFI Ratio [3]: 14.9 ratio
- MFI Ratio [4]: 11.9 ratio
- MFI Ratio [5]: 14 ratio
- MFI Ratio [6]: 13.7 ratio
- MFI Ratio [7]: 5.9 ratio
- MFI Ratio [8]: 5.4 ratio
- MFI Ratio [9]: 8.9 ratio
- MFI Ratio [10]: 12.8 ratio
- MFI Ratio [11]: 23.5 ratio
- MFI Ratio [12]: 23.2 ratio
- MFI Ratio [13]: 10.7 ratio
- MFI Ratio [14]: 8.6 ratio
- MFI Ratio [15]: 20 ratio
- MFI Ratio [16]: 78 ratio
- MFI Ratio [17]: 13.1 ratio
- MFI Ratio [18]: 24 ratio
B1: 84D (comparison group antibody, Enoblituzumab) (antibody, V domains shown)
VH: EVQLVESGGGLVQPGGSLRLSCAASGFTFSSFGMHWVRQAPGKGLEWVAYISSDSSAIYYADTVKGRFTISRDNAKNSLYLQMNSLRDEDTAVYYCGRGRENIYYGSRLDYWGQGTTVTVSS
VL: DIQLTQSPSFLSASVGDRVTITCKASQNVDTNVAWYQQKPGKAPKALIYSASYRYSGVPSRFSGSGSGTDFTLTISSLQPEDFATYYCQQYNNYPFTFGQGTKLEIK
